This assay deals with T1, CRF1R receptor (anti-target) (UniProt P34998 24-415, limits assumed).
T1 sequence (looked up): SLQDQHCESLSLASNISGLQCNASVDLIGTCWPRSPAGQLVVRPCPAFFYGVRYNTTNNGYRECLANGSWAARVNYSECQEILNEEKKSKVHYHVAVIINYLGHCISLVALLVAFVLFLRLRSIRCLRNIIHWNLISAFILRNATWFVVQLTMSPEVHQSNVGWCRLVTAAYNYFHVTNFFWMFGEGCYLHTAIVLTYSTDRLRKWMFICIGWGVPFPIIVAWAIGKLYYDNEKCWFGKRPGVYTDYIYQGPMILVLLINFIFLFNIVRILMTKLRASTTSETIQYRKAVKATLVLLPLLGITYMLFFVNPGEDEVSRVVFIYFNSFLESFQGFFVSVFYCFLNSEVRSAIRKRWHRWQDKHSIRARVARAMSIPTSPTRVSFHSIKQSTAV
In words: cell-based or functional assay.

The text below walks through data of patent US12679878B2, “CRF2 receptor agonists and their use in therapy” (SANOFI, priority 2020, dated 2026).

Starred links: 1 amine or outer side, 2 acyl side, 3 side chain; linkers in the order of their positions; H or OH if unused. Non-standard residues stand in square brackets, D forms with d. Groups on a side chain read outwards from the residue. No end group written: not given here. *: point of attachment. C16 diacid = O=C(O)CCCCCCCCCCCCCCC(=O)*; γGlu = O=C(O)[C@H](CCC(=O)[*:2])N[*:1]; Aib = CC(C)(N)C(=O)O

B1: peptide of SEQ ID NO: 189 (peptide)
peptide: IVLSLD[dV]PIKLK([γGlu-C16 diacid])QILLKQERQKK[Aib]RQKAEKNKQILAQV-NH2
modifications: N-terminus assumed
SMILES: CC[C@H](C)[C@H](N)C(=O)N[C@H](C(=O)N[C@@H](CC(C)C)C(=O)N[C@@H](CO)C(=O)N[C@@H](CC(C)C)C(=O)N[C@@H](CC(=O)O)C(=O)N[C@@H](C(=O)N1CCC[C@H]1C(=O)N[C@H](C(=O)N[C@@H](CCCCN)C(=O)N[C@@H](CC(C)C)C(=O)N[C@@H](CCCCNC(=O)CC[C@H](NC(=O)CCCCCCCCCCCCCCC(=O)O)C(=O)O)C(=O)N[C@@H](CCC(N)=O)C(=O)N[C@H](C(=O)N[C@@H](CC(C)C)C(=O)N[C@@H](CC(C)C)C(=O)N[C@@H](CCCCN)C(=O)N[C@@H](CCC(N)=O)C(=O)N[C@@H](CCC(=O)O)C(=O)N[C@@H](CCCNC(=N)N)C(=O)N[C@@H](CCC(N)=O)C(=O)N[C@@H](CCCCN)C(=O)N[C@@H](CCCCN)C(=O)NC(C)(C)C(=O)N[C@@H](CCCNC(=N)N)C(=O)N[C@@H](CCC(N)=O)C(=O)N[C@@H](CCCCN)C(=O)N[C@@H](C)C(=O)N[C@@H](CCC(=O)O)C(=O)N[C@@H](CCCCN)C(=O)N[C@@H](CC(N)=O)C(=O)N[C@@H](CCCCN)C(=O)N[C@@H](CCC(N)=O)C(=O)N[C@H](C(=O)N[C@@H](CC(C)C)C(=O)N[C@@H](C)C(=O)N[C@@H](CCC(N)=O)C(=O)N[C@H](C(N)=O)C(C)C)[C@@H](C)CC)[C@@H](C)CC)[C@@H](C)CC)C(C)C)C(C)C
Take B1: the “CRF1/CRF2 ratio (of EC50)” value was above 500 and the “CRF1 EC50 (cAMP, HTRF)” value is above 100 nM.

B2: peptide of SEQ ID NO: 196 (peptide)
peptide: IVLSLD[dV]PIGLK([γGlu-C16 diacid])QILLKQERQKK[Aib]REQAEKNKRILERV-NH2
modifications: N-terminus assumed
SMILES: CC[C@H](C)[C@H](N)C(=O)N[C@H](C(=O)N[C@@H](CC(C)C)C(=O)N[C@@H](CO)C(=O)N[C@@H](CC(C)C)C(=O)N[C@@H](CC(=O)O)C(=O)N[C@@H](C(=O)N1CCC[C@H]1C(=O)N[C@H](C(=O)NCC(=O)N[C@@H](CC(C)C)C(=O)N[C@@H](CCCCNC(=O)CC[C@H](NC(=O)CCCCCCCCCCCCCCC(=O)O)C(=O)O)C(=O)N[C@@H](CCC(N)=O)C(=O)N[C@H](C(=O)N[C@@H](CC(C)C)C(=O)N[C@@H](CC(C)C)C(=O)N[C@@H](CCCCN)C(=O)N[C@@H](CCC(N)=O)C(=O)N[C@@H](CCC(=O)O)C(=O)N[C@@H](CCCNC(=N)N)C(=O)N[C@@H](CCC(N)=O)C(=O)N[C@@H](CCCCN)C(=O)N[C@@H](CCCCN)C(=O)NC(C)(C)C(=O)N[C@@H](CCCNC(=N)N)C(=O)N[C@@H](CCC(=O)O)C(=O)N[C@@H](CCC(N)=O)C(=O)N[C@@H](C)C(=O)N[C@@H](CCC(=O)O)C(=O)N[C@@H](CCCCN)C(=O)N[C@@H](CC(N)=O)C(=O)N[C@@H](CCCCN)C(=O)N[C@@H](CCCNC(=N)N)C(=O)N[C@H](C(=O)N[C@@H](CC(C)C)C(=O)N[C@@H](CCC(=O)O)C(=O)N[C@@H](CCCNC(=N)N)C(=O)N[C@H](C(N)=O)C(C)C)[C@@H](C)CC)[C@@H](C)CC)[C@@H](C)CC)C(C)C)C(C)C
In the case of B2, the “CRF1/CRF2 ratio (of EC50)” value was above 500 and the “CRF1 EC50 (cAMP, HTRF)” value was above 100 nM.

B3: peptide of SEQ ID NO: 187 (peptide)
peptide: IVLSLD[dV]PIKLK([γGlu-C16 diacid])QILLKQERQK[Aib]QREQAEKNKQILAQV-NH2
modifications: N-terminus assumed
SMILES: CC[C@H](C)[C@H](N)C(=O)N[C@H](C(=O)N[C@@H](CC(C)C)C(=O)N[C@@H](CO)C(=O)N[C@@H](CC(C)C)C(=O)N[C@@H](CC(=O)O)C(=O)N[C@@H](C(=O)N1CCC[C@H]1C(=O)N[C@H](C(=O)N[C@@H](CCCCN)C(=O)N[C@@H](CC(C)C)C(=O)N[C@@H](CCCCNC(=O)CC[C@H](NC(=O)CCCCCCCCCCCCCCC(=O)O)C(=O)O)C(=O)N[C@@H](CCC(N)=O)C(=O)N[C@H](C(=O)N[C@@H](CC(C)C)C(=O)N[C@@H](CC(C)C)C(=O)N[C@@H](CCCCN)C(=O)N[C@@H](CCC(N)=O)C(=O)N[C@@H](CCC(=O)O)C(=O)N[C@@H](CCCNC(=N)N)C(=O)N[C@@H](CCC(N)=O)C(=O)N[C@@H](CCCCN)C(=O)NC(C)(C)C(=O)N[C@@H](CCC(N)=O)C(=O)N[C@@H](CCCNC(=N)N)C(=O)N[C@@H](CCC(=O)O)C(=O)N[C@@H](CCC(N)=O)C(=O)N[C@@H](C)C(=O)N[C@@H](CCC(=O)O)C(=O)N[C@@H](CCCCN)C(=O)N[C@@H](CC(N)=O)C(=O)N[C@@H](CCCCN)C(=O)N[C@@H](CCC(N)=O)C(=O)N[C@H](C(=O)N[C@@H](CC(C)C)C(=O)N[C@@H](C)C(=O)N[C@@H](CCC(N)=O)C(=O)N[C@H](C(N)=O)C(C)C)[C@@H](C)CC)[C@@H](C)CC)[C@@H](C)CC)C(C)C)C(C)C
In the case of B3, the “CRF1/CRF2 ratio (of EC50)” value was above 500 and the “CRF1 EC50 (cAMP, HTRF)” value is above 100 nM.

B4: peptide of SEQ ID NO: 190 (peptide)
peptide: IVLSLD[dV]PIKLK([γGlu-C16 diacid])QILLKQERQKKQREQAEKNKQILEQV-NH2
modifications: N-terminus assumed
SMILES: CC[C@H](C)[C@H](N)C(=O)N[C@H](C(=O)N[C@@H](CC(C)C)C(=O)N[C@@H](CO)C(=O)N[C@@H](CC(C)C)C(=O)N[C@@H](CC(=O)O)C(=O)N[C@@H](C(=O)N1CCC[C@H]1C(=O)N[C@H](C(=O)N[C@@H](CCCCN)C(=O)N[C@@H](CC(C)C)C(=O)N[C@@H](CCCCNC(=O)CC[C@H](NC(=O)CCCCCCCCCCCCCCC(=O)O)C(=O)O)C(=O)N[C@@H](CCC(N)=O)C(=O)N[C@H](C(=O)N[C@@H](CC(C)C)C(=O)N[C@@H](CC(C)C)C(=O)N[C@@H](CCCCN)C(=O)N[C@@H](CCC(N)=O)C(=O)N[C@@H](CCC(=O)O)C(=O)N[C@@H](CCCNC(=N)N)C(=O)N[C@@H](CCC(N)=O)C(=O)N[C@@H](CCCCN)C(=O)N[C@@H](CCCCN)C(=O)N[C@@H](CCC(N)=O)C(=O)N[C@@H](CCCNC(=N)N)C(=O)N[C@@H](CCC(=O)O)C(=O)N[C@@H](CCC(N)=O)C(=O)N[C@@H](C)C(=O)N[C@@H](CCC(=O)O)C(=O)N[C@@H](CCCCN)C(=O)N[C@@H](CC(N)=O)C(=O)N[C@@H](CCCCN)C(=O)N[C@@H](CCC(N)=O)C(=O)N[C@H](C(=O)N[C@@H](CC(C)C)C(=O)N[C@@H](CCC(=O)O)C(=O)N[C@@H](CCC(N)=O)C(=O)N[C@H](C(N)=O)C(C)C)[C@@H](C)CC)[C@@H](C)CC)[C@@H](C)CC)C(C)C)C(C)C
Take B4: the “CRF1/CRF2 ratio (of EC50)” value was above 500 and the “CRF1 EC50 (cAMP, HTRF)” value is above 100 nM.

B5: peptide of SEQ ID NO: 193 (peptide)
peptide: IVLSLD[dV]PIGLK([γGlu-C16 diacid])QILLKQERQKK[Aib]REQAETNKRILERV-NH2
modifications: N-terminus assumed
SMILES: CC[C@H](C)[C@H](N)C(=O)N[C@H](C(=O)N[C@@H](CC(C)C)C(=O)N[C@@H](CO)C(=O)N[C@@H](CC(C)C)C(=O)N[C@@H](CC(=O)O)C(=O)N[C@@H](C(=O)N1CCC[C@H]1C(=O)N[C@H](C(=O)NCC(=O)N[C@@H](CC(C)C)C(=O)N[C@@H](CCCCNC(=O)CC[C@H](NC(=O)CCCCCCCCCCCCCCC(=O)O)C(=O)O)C(=O)N[C@@H](CCC(N)=O)C(=O)N[C@H](C(=O)N[C@@H](CC(C)C)C(=O)N[C@@H](CC(C)C)C(=O)N[C@@H](CCCCN)C(=O)N[C@@H](CCC(N)=O)C(=O)N[C@@H](CCC(=O)O)C(=O)N[C@@H](CCCNC(=N)N)C(=O)N[C@@H](CCC(N)=O)C(=O)N[C@@H](CCCCN)C(=O)N[C@@H](CCCCN)C(=O)NC(C)(C)C(=O)N[C@@H](CCCNC(=N)N)C(=O)N[C@@H](CCC(=O)O)C(=O)N[C@@H](CCC(N)=O)C(=O)N[C@@H](C)C(=O)N[C@@H](CCC(=O)O)C(=O)N[C@H](C(=O)N[C@@H](CC(N)=O)C(=O)N[C@@H](CCCCN)C(=O)N[C@@H](CCCNC(=N)N)C(=O)N[C@H](C(=O)N[C@@H](CC(C)C)C(=O)N[C@@H](CCC(=O)O)C(=O)N[C@@H](CCCNC(=N)N)C(=O)N[C@H](C(N)=O)C(C)C)[C@@H](C)CC)[C@@H](C)O)[C@@H](C)CC)[C@@H](C)CC)C(C)C)C(C)C
Take B5: the “CRF1/CRF2 ratio (of EC50)” value was above 500 and the “CRF1 EC50 (cAMP, HTRF)” value was above 100 nM.

B6: peptide of SEQ ID NO: 195 (peptide)
peptide: IVLSLD[dV]PIGLK([γGlu-C16 diacid])QILLKQERQKK[Aib]RQQAETNKRILERV-NH2
modifications: N-terminus assumed
SMILES: CC[C@H](C)[C@H](N)C(=O)N[C@H](C(=O)N[C@@H](CC(C)C)C(=O)N[C@@H](CO)C(=O)N[C@@H](CC(C)C)C(=O)N[C@@H](CC(=O)O)C(=O)N[C@@H](C(=O)N1CCC[C@H]1C(=O)N[C@H](C(=O)NCC(=O)N[C@@H](CC(C)C)C(=O)N[C@@H](CCCCNC(=O)CC[C@H](NC(=O)CCCCCCCCCCCCCCC(=O)O)C(=O)O)C(=O)N[C@@H](CCC(N)=O)C(=O)N[C@H](C(=O)N[C@@H](CC(C)C)C(=O)N[C@@H](CC(C)C)C(=O)N[C@@H](CCCCN)C(=O)N[C@@H](CCC(N)=O)C(=O)N[C@@H](CCC(=O)O)C(=O)N[C@@H](CCCNC(=N)N)C(=O)N[C@@H](CCC(N)=O)C(=O)N[C@@H](CCCCN)C(=O)N[C@@H](CCCCN)C(=O)NC(C)(C)C(=O)N[C@@H](CCCNC(=N)N)C(=O)N[C@@H](CCC(N)=O)C(=O)N[C@@H](CCC(N)=O)C(=O)N[C@@H](C)C(=O)N[C@@H](CCC(=O)O)C(=O)N[C@H](C(=O)N[C@@H](CC(N)=O)C(=O)N[C@@H](CCCCN)C(=O)N[C@@H](CCCNC(=N)N)C(=O)N[C@H](C(=O)N[C@@H](CC(C)C)C(=O)N[C@@H](CCC(=O)O)C(=O)N[C@@H](CCCNC(=N)N)C(=O)N[C@H](C(N)=O)C(C)C)[C@@H](C)CC)[C@@H](C)O)[C@@H](C)CC)[C@@H](C)CC)C(C)C)C(C)C
B6: the “CRF1/CRF2 ratio (of EC50)” value is above 500 and the “CRF1 EC50 (cAMP, HTRF)” value was above 100 nM.
